Reference: IntAct's records for PubMed 16777958

Target: ack1_mouse Tnk2 (UniProt O54967)
Sequence (O54967 whole entry): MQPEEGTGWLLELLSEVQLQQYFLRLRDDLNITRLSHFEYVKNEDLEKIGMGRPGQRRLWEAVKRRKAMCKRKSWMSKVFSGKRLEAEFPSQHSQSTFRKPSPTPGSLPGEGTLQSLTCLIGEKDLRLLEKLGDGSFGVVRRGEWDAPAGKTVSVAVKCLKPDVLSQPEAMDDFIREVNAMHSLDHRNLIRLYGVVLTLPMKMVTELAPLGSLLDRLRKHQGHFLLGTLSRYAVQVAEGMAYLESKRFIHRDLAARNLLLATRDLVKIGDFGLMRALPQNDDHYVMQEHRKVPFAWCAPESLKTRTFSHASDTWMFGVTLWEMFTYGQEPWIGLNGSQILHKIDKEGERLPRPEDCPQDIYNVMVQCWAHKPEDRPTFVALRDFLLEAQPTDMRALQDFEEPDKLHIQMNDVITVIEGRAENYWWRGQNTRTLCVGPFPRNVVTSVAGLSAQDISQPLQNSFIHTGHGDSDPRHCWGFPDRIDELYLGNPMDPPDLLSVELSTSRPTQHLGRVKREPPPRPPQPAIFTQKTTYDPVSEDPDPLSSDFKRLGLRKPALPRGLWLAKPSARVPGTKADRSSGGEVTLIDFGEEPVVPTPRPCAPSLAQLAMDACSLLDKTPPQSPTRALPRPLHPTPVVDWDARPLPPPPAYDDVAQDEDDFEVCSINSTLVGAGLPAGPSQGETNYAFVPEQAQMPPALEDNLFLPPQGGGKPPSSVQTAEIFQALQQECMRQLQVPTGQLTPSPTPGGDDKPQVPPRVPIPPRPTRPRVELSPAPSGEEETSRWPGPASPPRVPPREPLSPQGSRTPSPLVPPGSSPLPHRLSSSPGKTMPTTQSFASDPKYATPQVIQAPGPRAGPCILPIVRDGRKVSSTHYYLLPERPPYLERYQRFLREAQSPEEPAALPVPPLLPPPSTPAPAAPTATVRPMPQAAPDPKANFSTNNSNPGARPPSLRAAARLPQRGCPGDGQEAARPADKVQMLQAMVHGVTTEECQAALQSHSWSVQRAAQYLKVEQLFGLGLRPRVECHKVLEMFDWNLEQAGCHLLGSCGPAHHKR

With “SH2/SH3 adapter protein NCK1 (Homo sapiens) (from UniProt P16333-1) R308A” the “effect of a mutation on the interaction” value was “disrupting interaction strength”.
